We go through 1 molecule from article PMC9263355, “Galectin-3 Decreases 4-1BBL Bioactivity by Crosslinking Soluble and Membrane Expressed 4-1BB” (Frontiers in Immunology, 2022).

This assay has as its target T1, recombinant human (rh)4-1BB Fc chimera protein (human, UniProt Q07011 24-186).
T1 construct: human 4-1BB (CD137/TNFRSF9), the part of it in the R&D Systems Fc chimera; Glycosylated; also called CD137; TNFRSF9; source: bought: R&D Systems
Nature of the assay: fluorescence polarisation; fluorescence anisotropy in solution, by inhibition: fixed galectin (0.2-2.5 µM) with 0.02 µM of its fluorescent probe, in the presence of 0.07-4.75 µM (rh)4-1BB Fc or (rh)IgG1 Fc; average Kd from the points with ≥ 15% inhibition. The conditions noted are these: both partners purified.

T1 sequence (Q07011 24-186, change not shown): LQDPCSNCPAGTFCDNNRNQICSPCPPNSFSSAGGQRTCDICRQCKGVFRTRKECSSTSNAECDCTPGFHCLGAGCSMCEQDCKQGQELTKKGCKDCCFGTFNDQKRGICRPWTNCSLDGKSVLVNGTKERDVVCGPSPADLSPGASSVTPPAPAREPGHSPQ

B1: recombinant human galectin-2 (natural protein, UniProt P05162 1-132, looked up)
chain: MTGELEVKNMDMKPGSTLKITGSIADGTDGFVINLGQGTDKLNLHFNPRFSESTIVCNSLDGSNWGQEQREDHLCFSPGSEVKFTVTFESDKFKVKLPDGHELTFPNRLGHSHLSYLSVRGGFNMSSFKLKE
notes: human galectin-2; also called Gal-2
For orientation: Kd means a measure of binding affinity in units of concentration. With B1, the Kd was 6.12 µM.
